{"source": "paper PMC3433420", "origin": "cited, not measured here", "details_in_all_cases": "cited from earlier work", "key": {"SYK-NC (Homo sapiens) [1]": {"biological_target": "SYK-NC (Homo sapiens) (UniProt P43405)"}, "GRB7 (Homo sapiens) [2]": {"biological_target": "GRB7 (Homo sapiens) (UniProt Q14451)", "sequence (Q14451 426-532)": "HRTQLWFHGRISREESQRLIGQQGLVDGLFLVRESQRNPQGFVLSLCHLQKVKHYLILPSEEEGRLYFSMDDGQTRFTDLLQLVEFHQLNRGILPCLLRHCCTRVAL"}, "ABL2 (Homo sapiens) [3]": {"biological_target": "ABL2 (Homo sapiens) (UniProt P42684)", "sequence (P42684 168-268)": "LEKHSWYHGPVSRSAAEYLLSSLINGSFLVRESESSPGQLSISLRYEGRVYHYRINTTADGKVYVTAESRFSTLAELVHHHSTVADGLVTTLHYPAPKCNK"}, "TNS4 (Homo sapiens) [4]": {"biological_target": "TNS4 (Homo sapiens) (UniProt Q8IZW8)", "sequence (Q8IZW8 444-561)": "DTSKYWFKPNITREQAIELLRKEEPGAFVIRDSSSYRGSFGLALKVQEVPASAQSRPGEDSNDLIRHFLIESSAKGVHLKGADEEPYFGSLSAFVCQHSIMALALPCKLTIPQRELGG"}, "TENC1 (Homo sapiens)": {"biological_target": "TENC1 (Homo sapiens) (UniProt Q63HR2)", "sequence (Q63HR2 1135-1252)": "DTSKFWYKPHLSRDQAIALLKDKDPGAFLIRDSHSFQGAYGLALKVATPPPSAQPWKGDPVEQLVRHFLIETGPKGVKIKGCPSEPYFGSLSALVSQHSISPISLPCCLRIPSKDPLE"}, "NCK2 (Homo sapiens) [5]": {"biological_target": "NCK2 (Homo sapiens) (UniProt O43639)", "sequence (O43639 280-380)": "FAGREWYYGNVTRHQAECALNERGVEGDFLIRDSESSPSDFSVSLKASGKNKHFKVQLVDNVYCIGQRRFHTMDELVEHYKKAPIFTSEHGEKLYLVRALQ"}, "HSH2D (Homo sapiens)": {"biological_target": "HSH2D (Homo sapiens) (UniProt Q96JZ2)", "sequence (Q96JZ2 29-130)": "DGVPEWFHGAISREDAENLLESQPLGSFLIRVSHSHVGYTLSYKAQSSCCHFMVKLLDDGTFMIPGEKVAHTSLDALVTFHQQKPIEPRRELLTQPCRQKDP"}, "SHC1-PTB (Homo sapiens) [6]": {"biological_target": "SHC1-PTB (Homo sapiens) (UniProt P29353)", "sequence (P29353 483-583)": "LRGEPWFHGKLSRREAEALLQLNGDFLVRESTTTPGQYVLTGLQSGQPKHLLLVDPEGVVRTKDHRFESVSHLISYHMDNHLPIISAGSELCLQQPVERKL"}, "RASA1-NC (Homo sapiens) [7]": {"biological_target": "RASA1-NC (Homo sapiens) (UniProt P20936)", "sequence (P20936 176-446)": "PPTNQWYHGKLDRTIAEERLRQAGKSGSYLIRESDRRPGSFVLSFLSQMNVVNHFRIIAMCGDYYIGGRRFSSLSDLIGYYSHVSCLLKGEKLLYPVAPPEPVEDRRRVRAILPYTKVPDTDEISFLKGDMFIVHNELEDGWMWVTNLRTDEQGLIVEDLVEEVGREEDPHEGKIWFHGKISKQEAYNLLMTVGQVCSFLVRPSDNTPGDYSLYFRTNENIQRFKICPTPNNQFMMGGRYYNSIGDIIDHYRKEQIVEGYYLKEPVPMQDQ"}, "MATK (Homo sapiens)": {"biological_target": "MATK (Homo sapiens) (UniProt P42679)", "sequence (P42679 117-216)": "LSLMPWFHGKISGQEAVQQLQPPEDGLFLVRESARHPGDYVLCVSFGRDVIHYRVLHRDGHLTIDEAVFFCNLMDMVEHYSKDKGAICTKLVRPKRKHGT"}, "SYK-NC (Homo sapiens) [8]": {"biological_target": "SYK-NC (Homo sapiens) (UniProt P43405)", "remark": "listed apart in the source"}, "SYK-C (Homo sapiens)": {"biological_target": "SYK-C (Homo sapiens) (UniProt P43405)"}, "GRB7 (Homo sapiens) [9]": {"biological_target": "GRB7 (Homo sapiens) (UniProt Q14451)", "remark": "listed apart in the source"}, "PIK3R1-N (Homo sapiens)": {"biological_target": "PIK3R1-N (Homo sapiens) (UniProt P27986)", "sequence (P27986 328-723)": "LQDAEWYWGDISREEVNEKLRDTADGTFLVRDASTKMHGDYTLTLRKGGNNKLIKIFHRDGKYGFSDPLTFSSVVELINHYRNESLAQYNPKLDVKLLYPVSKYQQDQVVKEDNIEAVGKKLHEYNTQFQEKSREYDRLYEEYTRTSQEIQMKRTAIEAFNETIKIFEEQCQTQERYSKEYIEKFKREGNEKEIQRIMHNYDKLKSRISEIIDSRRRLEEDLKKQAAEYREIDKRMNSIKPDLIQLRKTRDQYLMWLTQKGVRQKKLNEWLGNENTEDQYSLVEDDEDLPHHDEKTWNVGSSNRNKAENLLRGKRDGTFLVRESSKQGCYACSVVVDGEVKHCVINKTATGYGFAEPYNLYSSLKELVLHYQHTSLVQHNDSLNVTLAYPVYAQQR"}, "SLA (Homo sapiens)": {"biological_target": "SLA (Homo sapiens) (UniProt Q13239)", "sequence (Q13239 79-180)": "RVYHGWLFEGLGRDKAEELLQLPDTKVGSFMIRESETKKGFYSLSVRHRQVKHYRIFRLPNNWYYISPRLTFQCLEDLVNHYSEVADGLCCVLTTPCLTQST"}, "BLK (Homo sapiens)": {"biological_target": "BLK (Homo sapiens) (UniProt P51451)", "sequence (P51451 119-225)": "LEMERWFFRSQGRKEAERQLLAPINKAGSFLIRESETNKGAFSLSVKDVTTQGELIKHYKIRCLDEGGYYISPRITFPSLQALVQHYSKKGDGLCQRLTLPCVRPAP"}, "ITK (Homo sapiens)": {"biological_target": "ITK (Homo sapiens) (UniProt Q08881)", "sequence (Q08881 234-343)": "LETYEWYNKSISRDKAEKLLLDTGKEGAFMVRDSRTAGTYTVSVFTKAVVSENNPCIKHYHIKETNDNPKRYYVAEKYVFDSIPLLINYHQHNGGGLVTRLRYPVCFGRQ"}, "ABL2 (Homo sapiens) [10]": {"biological_target": "ABL2 (Homo sapiens) (UniProt P42684)", "remark": "listed apart in the source"}, "CRK (Homo sapiens)": {"biological_target": "CRK (Homo sapiens) (UniProt P46108)"}, "TNS4 (Homo sapiens) [11]": {"biological_target": "TNS4 (Homo sapiens) (UniProt Q8IZW8)", "remark": "listed apart in the source"}, "SUPT6H (Homo sapiens)": {"biological_target": "SUPT6H (Homo sapiens) (UniProt Q7KZ85)", "sequence (Q7KZ85 1320-1436)": "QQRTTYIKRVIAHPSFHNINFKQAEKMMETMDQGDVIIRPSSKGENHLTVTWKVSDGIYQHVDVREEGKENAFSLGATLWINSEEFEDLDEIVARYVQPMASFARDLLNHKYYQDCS"}, "SH2B3 (Homo sapiens)": {"biological_target": "SH2B3 (Homo sapiens) (UniProt Q9UQQ2)", "sequence (Q9UQQ2 359-467)": "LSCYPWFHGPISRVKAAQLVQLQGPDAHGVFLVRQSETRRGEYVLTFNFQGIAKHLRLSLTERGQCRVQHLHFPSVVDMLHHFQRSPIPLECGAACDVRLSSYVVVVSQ"}, "PLCG2-NC (Homo sapiens)": {"biological_target": "PLCG2-NC (Homo sapiens) (UniProt P16885)", "sequence (P16885 527-740)": "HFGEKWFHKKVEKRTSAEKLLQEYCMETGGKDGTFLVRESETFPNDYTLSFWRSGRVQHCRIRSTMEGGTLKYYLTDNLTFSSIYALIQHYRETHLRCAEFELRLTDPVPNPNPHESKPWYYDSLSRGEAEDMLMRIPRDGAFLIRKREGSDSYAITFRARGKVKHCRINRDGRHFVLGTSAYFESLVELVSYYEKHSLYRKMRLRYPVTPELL"}, "PIK3R3-NC (Homo sapiens)": {"biological_target": "PIK3R3-NC (Homo sapiens) (UniProt Q92569)"}, "LYN (Homo sapiens)": {"biological_target": "LYN (Homo sapiens) (UniProt P07948)", "sequence (P07948 124-231)": "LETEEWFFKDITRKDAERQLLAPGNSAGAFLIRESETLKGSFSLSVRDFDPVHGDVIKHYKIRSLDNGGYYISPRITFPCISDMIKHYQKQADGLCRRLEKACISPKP"}, "FGR (Homo sapiens)": {"biological_target": "FGR (Homo sapiens) (UniProt P09769)"}, "VAV3 (Homo sapiens)": {"biological_target": "VAV3 (Homo sapiens) (UniProt Q9UKW4)", "sequence (Q9UKW4 667-771)": "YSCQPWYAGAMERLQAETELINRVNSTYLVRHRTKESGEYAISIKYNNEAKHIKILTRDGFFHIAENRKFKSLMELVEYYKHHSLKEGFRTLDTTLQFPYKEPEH"}, "RASA1-N (Homo sapiens)": {"biological_target": "RASA1-N (Homo sapiens) (UniProt P20936)", "sequence (P20936 176-446)": "as the sequence (P20936 176-446) above"}, "GRB14 (Homo sapiens)": {"biological_target": "GRB14 (Homo sapiens) (UniProt Q14449)", "sequence (Q14449 434-540)": "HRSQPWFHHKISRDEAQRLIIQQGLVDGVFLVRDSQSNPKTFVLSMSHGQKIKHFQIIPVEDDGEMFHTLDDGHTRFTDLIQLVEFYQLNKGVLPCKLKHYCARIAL"}, "SH2B (Homo sapiens)": {"biological_target": "SH2B (Homo sapiens) (UniProt Q9NRF2)"}, "PLCG2-N (Homo sapiens)": {"biological_target": "PLCG2-N (Homo sapiens) (UniProt P16885)", "sequence (P16885 527-740)": "as the sequence (P16885 527-740) above"}, "PIK3R1-NC (Homo sapiens)": {"biological_target": "PIK3R1-NC (Homo sapiens) (UniProt P27986)", "sequence (P27986 328-723)": "as the sequence (P27986 328-723) above"}, "NCK2 (Homo sapiens) [12]": {"biological_target": "NCK2 (Homo sapiens) (UniProt O43639)", "remark": "listed apart in the source"}, "GRB10 (Homo sapiens)": {"biological_target": "GRB10 (Homo sapiens) (UniProt Q13322)", "sequence (Q13322 488-579)": "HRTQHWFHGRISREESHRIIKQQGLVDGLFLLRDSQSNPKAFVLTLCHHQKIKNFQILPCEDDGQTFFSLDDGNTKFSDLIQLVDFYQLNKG"}, "TNS3 (Homo sapiens)": {"biological_target": "TNS3 (Homo sapiens) (UniProt Q68CZ2)", "sequence (Q68CZ2 1167-1287)": "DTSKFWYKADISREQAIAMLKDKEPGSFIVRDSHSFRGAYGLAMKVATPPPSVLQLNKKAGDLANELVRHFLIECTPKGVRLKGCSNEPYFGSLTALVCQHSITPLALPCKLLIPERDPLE"}, "SRC (Homo sapiens)": {"biological_target": "SRC (Homo sapiens) (UniProt P12931)"}, "PIK3R2-NC (Homo sapiens)": {"biological_target": "PIK3R2-NC (Homo sapiens) (UniProt O00459)", "sequence (O00459 325-721)": "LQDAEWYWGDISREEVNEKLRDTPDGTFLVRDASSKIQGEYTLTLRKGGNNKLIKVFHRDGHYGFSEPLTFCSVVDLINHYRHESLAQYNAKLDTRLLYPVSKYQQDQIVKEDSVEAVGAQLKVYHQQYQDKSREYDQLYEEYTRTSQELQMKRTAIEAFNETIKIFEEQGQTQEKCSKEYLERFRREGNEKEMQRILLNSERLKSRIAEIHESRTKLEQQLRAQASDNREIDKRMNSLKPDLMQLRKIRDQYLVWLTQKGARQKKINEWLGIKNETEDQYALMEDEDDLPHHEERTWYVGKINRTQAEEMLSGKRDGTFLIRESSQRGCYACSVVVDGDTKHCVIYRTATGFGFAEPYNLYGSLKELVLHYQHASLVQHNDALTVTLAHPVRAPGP"}, "BCAR3 (Homo sapiens)": {"biological_target": "BCAR3 (Homo sapiens) (UniProt O75815)", "sequence (O75815 149-258)": "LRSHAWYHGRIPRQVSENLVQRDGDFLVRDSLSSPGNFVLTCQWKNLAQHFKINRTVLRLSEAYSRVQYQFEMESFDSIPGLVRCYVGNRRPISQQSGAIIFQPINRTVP"}, "SHC1-PTB (Homo sapiens) [13]": {"biological_target": "SHC1-PTB (Homo sapiens) (UniProt P29353)", "remark": "listed apart in the source"}, "VAV2 (Homo sapiens)": {"biological_target": "VAV2 (Homo sapiens) (UniProt P52735)", "sequence (P52735 668-772)": "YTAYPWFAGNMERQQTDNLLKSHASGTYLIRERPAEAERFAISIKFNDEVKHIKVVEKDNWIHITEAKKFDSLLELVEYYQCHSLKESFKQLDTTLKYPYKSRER"}, "YES1 (Homo sapiens)": {"biological_target": "YES1 (Homo sapiens) (UniProt P07947)", "sequence (P07947 153-260)": "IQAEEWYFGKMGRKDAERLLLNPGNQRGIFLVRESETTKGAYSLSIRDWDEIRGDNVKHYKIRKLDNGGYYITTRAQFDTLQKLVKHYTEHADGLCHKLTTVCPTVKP"}, "SHC2-PTB (Homo sapiens)": {"biological_target": "SHC2-PTB (Homo sapiens) (UniProt P98077)", "sequence (P98077 482-582)": "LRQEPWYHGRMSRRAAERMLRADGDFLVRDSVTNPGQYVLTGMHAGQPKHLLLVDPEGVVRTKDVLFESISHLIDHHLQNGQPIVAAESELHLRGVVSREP"}, "SHB (Homo sapiens)": {"biological_target": "SHB (Homo sapiens) (UniProt Q15464)"}, "SH2D3C (Homo sapiens)": {"biological_target": "SH2D3C (Homo sapiens) (UniProt Q8N5H7)", "sequence (Q8N5H7 215-324)": "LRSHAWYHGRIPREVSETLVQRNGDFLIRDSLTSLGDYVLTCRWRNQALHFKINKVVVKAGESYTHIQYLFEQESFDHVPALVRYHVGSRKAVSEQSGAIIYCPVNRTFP"}, "RASA1-NC (Homo sapiens) [14]": {"biological_target": "RASA1-NC (Homo sapiens) (UniProt P20936)", "remark": "listed apart in the source"}, "PIK3R2-N (Homo sapiens)": {"biological_target": "PIK3R2-N (Homo sapiens) (UniProt O00459)", "sequence (O00459 325-721)": "as the sequence (O00459 325-721) above"}}, "note": "Read-outs that look alike come from different tables or passages of the source.", "data": [{"substance": "…pYWHSRLFP", "values": [{"measurement": "apparent Kd (screen)", "setting": "SYK-NC (Homo sapiens) [1]", "result": 1980, "unit": "nM"}, {"measurement": "apparent Kd (screen)", "setting": "GRB7 (Homo sapiens) [2]", "result": 1690, "unit": "nM"}, {"measurement": "apparent Kd (screen)", "setting": "ABL2 (Homo sapiens) [3]", "result": 604, "unit": "nM"}, {"measurement": "apparent Kd (screen)", "setting": "TNS4 (Homo sapiens) [4]", "result": 850, "unit": "nM"}, {"measurement": "apparent Kd (screen)", "setting": "TENC1 (Homo sapiens)", "result": 1250, "unit": "nM"}, {"measurement": "apparent Kd (screen)", "setting": "NCK2 (Homo sapiens) [5]", "result": 1900, "unit": "nM"}, {"measurement": "apparent Kd (screen)", "setting": "HSH2D (Homo sapiens)", "result": 1700, "unit": "nM"}, {"measurement": "apparent Kd (screen)", "setting": "SHC1-PTB (Homo sapiens) [6]", "result": 217, "unit": "nM"}, {"measurement": "apparent Kd (screen)", "setting": "RASA1-NC (Homo sapiens) [7]", "result": 1920, "unit": "nM"}, {"measurement": "apparent Kd (screen)", "setting": "MATK (Homo sapiens)", "result": 1870, "unit": "nM"}]}, {"substance": "…pYQQDFFPKd", "values": [{"measurement": "apparent Kd (screen)", "setting": "SYK-NC (Homo sapiens) [8]", "result": 1280, "unit": "nM"}, {"measurement": "apparent Kd (screen)", "setting": "SYK-C (Homo sapiens)", "result": 869, "unit": "nM"}, {"measurement": "apparent Kd (screen)", "setting": "GRB7 (Homo sapiens) [9]", "result": 2000, "unit": "nM"}, {"measurement": "apparent Kd (screen)", "setting": "PIK3R1-N (Homo sapiens)", "result": 404, "unit": "nM"}, {"measurement": "apparent Kd (screen)", "setting": "SLA (Homo sapiens)", "result": 2000, "unit": "nM"}, {"measurement": "apparent Kd (screen)", "setting": "BLK (Homo sapiens)", "result": 751, "unit": "nM"}, {"measurement": "apparent Kd (screen)", "setting": "ITK (Homo sapiens)", "result": 1410, "unit": "nM"}, {"measurement": "apparent Kd (screen)", "setting": "ABL2 (Homo sapiens) [10]", "result": 490, "unit": "nM"}, {"measurement": "apparent Kd (screen)", "setting": "CRK (Homo sapiens)", "result": 408, "unit": "nM"}, {"measurement": "apparent Kd (screen)", "setting": "TNS4 (Homo sapiens) [11]", "result": 334, "unit": "nM"}, {"measurement": "apparent Kd (screen)", "setting": "SUPT6H (Homo sapiens)", "result": 1030, "unit": "nM"}, {"measurement": "apparent Kd (screen)", "setting": "SH2B3 (Homo sapiens)", "result": 1600, "unit": "nM"}, {"measurement": "apparent Kd (screen)", "setting": "PLCG2-NC (Homo sapiens)", "result": 674, "unit": "nM"}, {"measurement": "apparent Kd (screen)", "setting": "PIK3R3-NC (Homo sapiens)", "result": 850, "unit": "nM"}, {"measurement": "apparent Kd (screen)", "setting": "LYN (Homo sapiens)", "result": 1590, "unit": "nM"}, {"measurement": "apparent Kd (screen)", "setting": "FGR (Homo sapiens)", "result": 546, "unit": "nM"}, {"measurement": "apparent Kd (screen)", "setting": "VAV3 (Homo sapiens)", "result": 2000, "unit": "nM"}, {"measurement": "apparent Kd (screen)", "setting": "RASA1-N (Homo sapiens)", "result": 1140, "unit": "nM"}, {"measurement": "apparent Kd (screen)", "setting": "GRB14 (Homo sapiens)", "result": 1250, "unit": "nM"}, {"measurement": "apparent Kd (screen)", "setting": "SH2B (Homo sapiens)", "result": 1820, "unit": "nM"}, {"measurement": "apparent Kd (screen)", "setting": "PLCG2-N (Homo sapiens)", "result": 841, "unit": "nM"}, {"measurement": "apparent Kd (screen)", "setting": "PIK3R1-NC (Homo sapiens)", "result": 547, "unit": "nM"}, {"measurement": "apparent Kd (screen)", "setting": "NCK2 (Homo sapiens) [12]", "result": 380, "unit": "nM"}, {"measurement": "apparent Kd (screen)", "setting": "GRB10 (Homo sapiens)", "result": 1290, "unit": "nM"}, {"measurement": "apparent Kd (screen)", "setting": "TNS3 (Homo sapiens)", "result": 736, "unit": "nM"}, {"measurement": "apparent Kd (screen)", "setting": "SRC (Homo sapiens)", "result": 466, "unit": "nM"}, {"measurement": "apparent Kd (screen)", "setting": "PIK3R2-NC (Homo sapiens)", "result": 322, "unit": "nM"}, {"measurement": "apparent Kd (screen)", "setting": "BCAR3 (Homo sapiens)", "result": 300, "unit": "nM"}, {"measurement": "apparent Kd (screen)", "setting": "SHC1-PTB (Homo sapiens) [13]", "result": 40, "unit": "nM"}, {"measurement": "apparent Kd (screen)", "setting": "VAV2 (Homo sapiens)", "result": 216, "unit": "nM"}, {"measurement": "apparent Kd (screen)", "setting": "YES1 (Homo sapiens)", "result": 98, "unit": "nM"}, {"measurement": "apparent Kd (screen)", "setting": "SHC2-PTB (Homo sapiens)", "result": 1310, "unit": "nM"}, {"measurement": "apparent Kd (screen)", "setting": "SHB (Homo sapiens)", "result": 1790, "unit": "nM"}, {"measurement": "apparent Kd (screen)", "setting": "SH2D3C (Homo sapiens)", "result": 1910, "unit": "nM"}, {"measurement": "apparent Kd (screen)", "setting": "RASA1-NC (Homo sapiens) [14]", "result": 1170, "unit": "nM"}, {"measurement": "apparent Kd (screen)", "setting": "PIK3R2-N (Homo sapiens)", "result": 390, "unit": "nM"}]}]}
